According to patent publication US20230051701A1 (Bristol-Myers Squibb, published 2023):
Several values for one entry are separate records, joined by “and”; a condition that tells them apart may be missing. Equal values may be shown once.

What was measured:
[1] = target: T1, rhCD73 bound to his-tag magnet beads (human, UniProt P21589 27-549, limits assumed); experiment: cell-based or functional assay
T1 sequence: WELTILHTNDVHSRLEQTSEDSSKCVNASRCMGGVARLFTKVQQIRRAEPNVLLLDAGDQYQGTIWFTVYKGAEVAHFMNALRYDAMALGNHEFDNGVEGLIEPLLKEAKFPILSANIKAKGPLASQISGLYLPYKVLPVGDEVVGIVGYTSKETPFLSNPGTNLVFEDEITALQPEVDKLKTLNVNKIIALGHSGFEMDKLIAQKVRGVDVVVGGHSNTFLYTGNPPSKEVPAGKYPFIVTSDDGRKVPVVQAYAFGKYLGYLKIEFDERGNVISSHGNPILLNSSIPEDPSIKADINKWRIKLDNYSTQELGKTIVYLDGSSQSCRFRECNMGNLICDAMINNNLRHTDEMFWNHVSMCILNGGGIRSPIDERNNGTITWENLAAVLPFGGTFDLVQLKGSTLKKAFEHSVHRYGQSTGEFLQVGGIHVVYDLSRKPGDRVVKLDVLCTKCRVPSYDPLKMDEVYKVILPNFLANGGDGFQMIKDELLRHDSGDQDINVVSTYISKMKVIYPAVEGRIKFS

[2] = target: T2, human CD73 on cells (Calu6, NCI-H292, SK-MEL-24, human tumor cell lines, human B and T cells) (human, UniProt P21589 27-549); experiment: cell-based or functional assay
T2 sequence: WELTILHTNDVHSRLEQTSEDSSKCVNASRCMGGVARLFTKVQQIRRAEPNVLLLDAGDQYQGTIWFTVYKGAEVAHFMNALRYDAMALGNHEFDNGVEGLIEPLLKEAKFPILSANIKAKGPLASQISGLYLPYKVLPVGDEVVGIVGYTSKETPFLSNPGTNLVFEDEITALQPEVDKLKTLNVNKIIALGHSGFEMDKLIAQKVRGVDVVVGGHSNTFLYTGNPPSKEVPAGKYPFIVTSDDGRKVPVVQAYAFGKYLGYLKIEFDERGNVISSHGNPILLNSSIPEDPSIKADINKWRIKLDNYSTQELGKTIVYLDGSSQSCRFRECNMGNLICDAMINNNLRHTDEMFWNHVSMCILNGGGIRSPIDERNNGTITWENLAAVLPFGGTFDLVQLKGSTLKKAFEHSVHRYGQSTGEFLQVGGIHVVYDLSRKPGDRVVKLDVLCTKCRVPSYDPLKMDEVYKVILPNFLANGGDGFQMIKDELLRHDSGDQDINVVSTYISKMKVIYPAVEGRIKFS

[3] = target: T2, human CD73 on cells (Calu6, NCI-H292, …); experiment: cell-based or functional assay; remark: listed apart in the source
[4] = target: T2, human CD73 on cells (Calu6, NCI-H292, …); experiment: cell-based or functional assay; remark: listed apart in the source
[5] = target: T3, N-terminal domain of hCD73 (residues 26-336 of human CD73), His-tagged (human, UniProt P21589 26-336); experiment: SPR, mAb captured on protein A
T3 construct: also called N-hCD73; N-hCD73-his
T3 sequence: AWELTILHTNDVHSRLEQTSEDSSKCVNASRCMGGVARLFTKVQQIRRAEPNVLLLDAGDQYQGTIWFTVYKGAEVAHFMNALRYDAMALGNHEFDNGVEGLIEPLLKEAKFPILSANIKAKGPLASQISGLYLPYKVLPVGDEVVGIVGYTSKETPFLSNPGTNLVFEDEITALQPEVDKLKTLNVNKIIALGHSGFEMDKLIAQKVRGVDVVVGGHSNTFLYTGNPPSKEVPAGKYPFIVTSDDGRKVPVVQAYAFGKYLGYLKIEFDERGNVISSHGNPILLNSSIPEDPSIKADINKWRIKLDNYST
Protocol: For these experiments, protein A (Pierce) was immobilized to a density of 3000 — 4000 RU on flow cells 1-4 of a CM5 sensor chip (GE Healthcare) using standard ethyl(dimethylaminopropyl) carbodiimide (EDC)/N-hydroxysuccinimide (NHS) chemistry, with ethanolamine blocking, in a running buffer of 0.01 M HEPES pH 7.4, 0.15 M NaCl, 3 mM EDTA, 0.005% v/v tween 20. […] The running buffer for the kinetic experiments was 10 mM sodium phosphate, 130 mM sodium chloride, 0.05% tween 20, pH 7.1. The surfaces were regenerated after each cycle using two 30 s pulses of 10 mM glycine pH 1.5 at a flow rate of 30 μl/min. Sensogram data was double-referenced and then fitted to a 1:1 Langmuir model using Biacore T100 evaluation software v2.0.4, to determine the association rate constant (ka), the dissociation rate constant (kd), and the equilibrium dissociation constant (KD).

[6] = target: T4, cynomolgus CD73 on transfected CHO cells (cynomolgus, UniProt P21589 27-549 (human entry)); experiment: flow cytometry, CHO-cynoCD73 cells
T4 construct: also called CHO-cynoCD73; cyno CD73 positive CHO cells
T4 chain: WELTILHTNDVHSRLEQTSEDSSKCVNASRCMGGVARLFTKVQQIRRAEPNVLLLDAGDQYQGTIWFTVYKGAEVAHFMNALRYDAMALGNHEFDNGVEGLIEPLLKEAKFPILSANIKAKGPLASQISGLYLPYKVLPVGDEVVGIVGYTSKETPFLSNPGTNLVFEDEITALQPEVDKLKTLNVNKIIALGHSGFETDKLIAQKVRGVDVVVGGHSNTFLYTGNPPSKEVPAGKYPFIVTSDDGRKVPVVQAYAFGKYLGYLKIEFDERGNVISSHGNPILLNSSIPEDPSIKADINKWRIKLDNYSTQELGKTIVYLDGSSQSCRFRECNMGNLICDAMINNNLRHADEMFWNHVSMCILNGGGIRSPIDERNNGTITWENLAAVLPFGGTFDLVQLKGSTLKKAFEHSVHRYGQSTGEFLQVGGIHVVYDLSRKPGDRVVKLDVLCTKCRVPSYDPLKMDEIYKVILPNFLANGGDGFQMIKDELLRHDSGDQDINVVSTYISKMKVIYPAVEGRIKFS
Protocol: (§1) Titration binding curves were produced with CD73 antibodies on Calu6 (CD73 endogenous expressors; human pulmonary adenocarcinoma cell line), DMS114 (CD73 negative; human small cell lung cancer cell line), CHO-cynoCD73 (cynoCD73-transfected) and CHO-K1 (cynoCD73 negative), cells using Alexa Fluor® 647 Goat Anti-Human IgG (H+L) as a secondary antibody, Invitrogen Cat#A-21445, using the following method: 100000 cells were plated in 100 uL PBS+2% FBS per well and blocked for 20 min. Using a U-bottom 96-deep well plate, volumes of antibody and PBS+2% FBS were combined as dictated by Table 12 below.
(§2) An 8-point serial dilution was performed by diluting a sixth of the volume (90 uL) into 450 μL PBS+2% FBS. The cell plate was spun down for 5 minutes at 1500 rpm. 100 uL of diluted antibody was added per well of the plate. 100 uL PBS+2% FBS were added to all other wells. […] The plates were spun down at 1500 rpm for 5 min and washed in 200 uL PBS +2% FBS per well. The plates were washed again, resuspended in 200 uL 2% FBS in PBS per well and the samples were run.

[7] = target: T4, cynomolgus CD73 on transfected CHO cells; experiment: flow cytometry, CHO-cynoCD73 cells, anti-human IgG secondary; column 'Kd (ng/mL)'
[8] = target: T2, human CD73 on cells (Calu6, NCI-H292, …); experiment: flow cytometry, Calu6 cells, anti-human IgG secondary (unstained -8.27, sec only 30.3)
[9] = target: T4, cynomolgus CD73 on transfected CHO cells; experiment: flow cytometry, CHO-cynoCD73 cells, anti-human IgG secondary (unstained 4.81, sec only 18.5)
[10] = target: T2, human CD73 on cells (Calu6, NCI-H292, …); experiment: binding titration on Calu6 cells, average of 2-6 experiments
Protocol: as §1, §2

| Binder | EC50 (nM), inhibition of bead-bound rhCD73 enzymatic activity [1] [nM] | EC50 Calu6 inhibition [2] [nM] | EC50 SKMEL24 inhibition [2] [nM] | Ymax, cAMP HTRF assay [3] | EC50 (nM), CD73 internalization, Calu6, 2 h [4] [nM] | Ymax, CD73 internalization, Calu6, 2 h [4] | Kd [5] | EC50 H292 inhibition [2] [nM] | IC50 (nM), cAMP HTRF assay, Calu-6 with HEK293/A2AR cells [3] [nM] | koff [5] [s⁻¹] | kon [5] [M⁻¹ s⁻¹] | EC50 [10] [nM] | further results |
| --- | --- | --- | --- | --- | --- | --- | --- | --- | --- | --- | --- | --- | --- |
| 11F11 (antibody, human IgG2, kappa, V domains shown, Human IgG2 from hybridoma) VH: QVQLVESGGGVVQPGRSLRLSCATSGFTFSNYGMHWVRQAPGKGLEWVAVILYDGSNKYYPDSVKGRFTISRDNSKNTLYLQMNSLRAEDTAVYYCARGGSSWYPDSFDIWGQGTMVTVSS VL: DIQMTQSPSSLSASVGDRVTITCRASQGISSWLAWYQQKPEKAPKSLIYAASSLQSGVPSRFSGSGSGTDFTLTISSLQPEDFATYYCQQYNSYPLTFGGGTKVEIKR | 3.98 | 0.7 | 3.15 | 76 % of 100 nM 11F11 | 0.58 | 98 % of 100 nM 11F11 | 1.6 nM and 0.56 nM | – | – | – | – | – | EC50 [6]: 0.58 nM; Kd [7]: 0.0207 µg/mL; MFI at 0.07 ng/mL antibody [8]: 788; MFI at 0.43 ng/mL antibody [8]: 1290; MFI at 2.57 ng/mL antibody [8]: 2250; MFI at 15.43 ng/mL antibody [8]: 4830; MFI at 92.59 ng/mL antibody [8]: 12100; MFI at 555.56 ng/mL antibody [8]: 27400; MFI at 3333.33 ng/mL antibody [8]: 29700; MFI at 20000 ng/mL antibody [8]: 36600; MFI at 0.07 ng/mL antibody [9]: 200; MFI at 0.43 ng/mL antibody [9]: 342; MFI at 2.57 ng/mL antibody [9]: 670; MFI at 15.43 ng/mL antibody [9]: 1150; MFI at 92.59 ng/mL antibody [9]: 1470; MFI at 555.56 ng/mL antibody [9]: 1640; MFI at 3333.33 ng/mL antibody [9]: 1990; MFI at 20000 ng/mL antibody [9]: 2660 |
| 7A11 (antibody, human IgG1, kappa, V domains shown, IgG1za from hybridoma; also called 7A11-1) VH: EVQLVESGGGLVQTGRSLRLSCAASGFTFDDYAMHWVRQAPGKGLEWVSDISWNSDIIGYADSVKGRFTISRDNAKNSLYLQMNSLRAEDTALYYCAKDIYGSGSSFFDYWGQGILVTVSS VL: DIQMTQSPSSLSASVGDRVTITCRASQYISSWLAWYQQKPEKAPKSLIYAASSLQSGVPSRFSGSGSGTDFTLTISSLQPEDFATYYCQQYHSYPPTFGQGTRLEIKR | 2.86 | 0.95 | 3.72 | 45 % of 100 nM 11F11 | 2.59 | 50 % of 100 nM 11F11 | 0.43 nM | 1.31 | 0.95 | 0.00038 | 880000 | 0.35 | – |
| 11A6 (antibody, human IgG1, kappa, V domains shown, IgG1za from hybridoma; also called 11A6-1) VH: EVQLVESGGNLVQPGRSLRLSCAASGFTFDDYAMHWVRQAPGKGLEWVSGISWNNNDIGYADSVKGRFIISRDNAKNSLYLQMNSLRPEDTALYYCVKGYYVILTGLDYWGQGTPVTVSS VL: DIQMTQSPSSLSASVGDRVTITCRASQGISSWLAWYQQKPEKAPKSLIYAASSLQSGVPSRFSGSGSGTDFTLTISSLQPEDFATYYCQQYNSYPLTFGGGTKVEIKR | 3.12 | 2.21 | – | 84 % of 100 nM 11F11 | – | – | 140 nM | – | 4.87 | 0.0076 | 55000 | 1.93 | – |
| 5F8 (antibody, human IgG1, kappa, V domains shown, IgG1za from hybridoma; predominant light chain VK1, VK2 also expressed; also called 5F8-1) VH: EVQLVESGGGLVQPGGSLRLSCAASGFTFSSYWMHWVRQAPGKGLVWVSRIISDGSSTGYADSVKGRFTISRDNAKNTLYLQMNSLRAEDTAVYYCAREFSSGWYFDYWGQGTLVTVSS VL: AIQLTQSPSSLSASVGDRVTITCRASQGISSALAWYQQKPGKAPKLLIYDASSLESGVPSRFSGSGSGTDFTLTISSLQPEDFATYYCQQFSSYPRTFGQGTKVEIKR | 5.76 | 8.1 | 110 | 80 % of 100 nM 11F11 | – | – | 41 nM | 13.5 | 13.2 | 0.006 | 150000 | 11.7 | – |
